The target in this assay is transforming growth factor beta 1 (UniProt P01137 279-390). Kind of assay: SPR.

These results are taken from publication PMC4484435 (2015).

In general, koff refers to the first-order rate constant of dissociation.

transforming growth factor beta 1, sequence (P01137 279-390): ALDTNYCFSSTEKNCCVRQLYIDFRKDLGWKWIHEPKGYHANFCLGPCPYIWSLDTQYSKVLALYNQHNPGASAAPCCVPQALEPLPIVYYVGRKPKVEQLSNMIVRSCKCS

B1: Leucine-rich α2-glycoprotein (natural protein)
chain: LKECLILQSAEGSTVSCHGPTEFPSSLPADTVHLSVEFSNLTQLPAAALQGCPGLRELHLSSNRLQALSPELLAPVPRLRALDLTRNALRSLPPGLFSTSANLSTLVLRENQLREVSAQWLQGLDALGHLDLAENQLSSLPSGLLASLGALHTLDLGYNLLESLPEGLLRGPRRLQRLHLEGNRLQRLEDSLLAPQPFLRVLFLNDNQLVGVATGSFQGLQHLDMLDLSNNSLSSTPPGLWAFLGRPTRDMQDGFDISHNPWICDKNLADLCRWLVANRNKMFSQNDTRCAGPEAMKGQRLLDVAELGSL
In turn, B1 yielded a koff of 0.0589 s⁻¹.
